From patent publication US20230242640A1 (published 2023)

T1: peptide human SIRPgamma VKFRKGSPENVEFKSGPGTEMALGAKPSA-6His
T1 peptide: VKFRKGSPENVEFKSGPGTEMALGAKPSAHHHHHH

T2: recombinant hSIRPg-His (Sino Biologicals reference 11828-H08H) (human, UniProt Q9P1W8 29-360)
T2 chain: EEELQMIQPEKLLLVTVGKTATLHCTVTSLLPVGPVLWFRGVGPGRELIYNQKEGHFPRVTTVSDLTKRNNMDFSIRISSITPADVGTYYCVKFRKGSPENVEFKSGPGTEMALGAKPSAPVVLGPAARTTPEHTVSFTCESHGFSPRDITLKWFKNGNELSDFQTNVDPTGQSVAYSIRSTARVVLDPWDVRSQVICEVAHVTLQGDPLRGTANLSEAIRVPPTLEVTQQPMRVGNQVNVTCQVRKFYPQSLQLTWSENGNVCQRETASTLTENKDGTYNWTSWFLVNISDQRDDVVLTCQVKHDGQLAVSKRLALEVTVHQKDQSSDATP


What was measured:
[1] = molecular target: T1, peptide human SIRPgamma …; experiment: ELISA
[2] = molecular target: T2, recombinant hSIRPg-His (Sino …); experiment: competition ELISA with CD47-Fc

Binder | EC50 [1] [µg/mL] | IC50 [2] [µg/mL]
anti-SIRPg antibody A5 (antibody, V domains shown) VH: EVQLVESGGGVVRPGGSLRLSCAASGFTFDDYGMSWVRQAPGKGLEWVSGINWNGGSTGYADSVKGRFTISRDNAKNSLYLQMNSLRAEDTAVYYCARQMVKLWGQGTLVTVSR VL: SSELTQDPAVSVALGQTVRITCQGDSLRSYYASWYQQKPGQAPVLVIYGKNNRPSGIPDRFSGSSSGNTASLTITGAQAEDEADYYCNSRDSSGNHVVFGGGTKLTVLR | 0.069 | 0.045
anti-SIRPg antibody A1 (antibody, V domains shown) VH: EVQLVESGGGVVRPGGSLRLSCAASGFTFDDYGMSWVRQAPGKGLEWVSGINWNGGSTGYADSVKGRFTISRDNAKNSLYLQMNSLRAEDTAVYYCARWIAKVWGQGTLVTVSR VL: SSELTQDPAVSVALGQTVRITCQGDSLRSYYASWYQQKPGQAPVLVIYGKNNRPSGIPDRFSGSSSGNTASLTITGAQAEDEADYYCNSRDSSGNHVVFGGGTKLTVLR | 0.0505 | 0.19
anti-SIRPg antibody A8 (antibody, V domains shown) VH: not shown VL: SSELTQDPAVSVALGQTVRITCQGDSLRSYYASWYQQKPGQAPVLVIYGKNNRPSGIPDRFSGSSSGNTASLTITGAQAEDEADYYCNSRDSSGNHVVFGGGTKLTVLR | 0.0258 | 0.31
